These results are taken from US20260117202A1.

In assay [1] the target is FHCS-1 (RSV strain A2) (UniProt P03420). Briefly: ELISA; F coated 1250 ng/ml; stored -80° C.
Assay [2] has as its target FHCS-2 (RSV strain A2) (UniProt P03420). Briefly: ELISA; F coated 1250 ng/ml; stored -80° C.
Assay [3] deals with FHCS-4 (RSV strain A2) (UniProt P03420). Kind of assay: ELISA; F coated 1250 ng/ml; stored -80° C.
The target in assay [4] is FHCS-1 (RSV strain A2) (UniProt P03420). Kind of assay: ELISA; F coated 5000 ng/ml; stored -80° C.
Assay [5] has as its target FHCS-2 (RSV strain A2) (UniProt P03420). Briefly: ELISA; F coated 5000 ng/ml; stored -80° C.
The target of assay [6] is FHCS-4 (RSV strain A2) (UniProt P03420). Briefly: ELISA; F coated 5000 ng/ml; stored -80° C.
Another assay addresses FHS-26 (RSV strain A2) (UniProt P03420). Kind of assay: sandwich ELISA, AM14 coated, supernatant 1:10.
The target of another assay is FHS-31 (RSV strain A2) (UniProt P03420). Kind of assay: sandwich ELISA, AM14 coated, supernatant 1:10.
A further assay concerns the target FHS-36 (RSV strain A2) (UniProt P03420). Kind of assay: sandwich ELISA, AM14 coated, supernatant 1:10.
Another assay concerns the target FHS-39 (RSV strain A2) (UniProt P03420). Briefly: sandwich ELISA, AM14 coated, supernatant 1:10.
Another assay concerns the target FHS-48 (RSV strain A2) (UniProt P03420). Briefly: sandwich ELISA, AM14 coated, supernatant 1:10.
A further assay concerns the target FHS-51 (RSV strain A2) (UniProt P03420). Kind of assay: sandwich ELISA, AM14 coated, supernatant 1:10.
The target in the next assay is FHS-54 (RSV strain A2) (UniProt P03420). Kind of assay: sandwich ELISA, AM14 coated, supernatant 1:10.
Another assay deals with FHS-69 (RSV strain A2) (UniProt P03420). Briefly: sandwich ELISA, AM14 coated, supernatant 1:10.
Another assay addresses FHS-86 (RSV strain A2) (UniProt P03420). Kind of assay: sandwich ELISA, AM14 coated, supernatant 1:10.
Assay [7] concerns the target FHCS-1 (RSV strain A2) (UniProt P03420). Kind of assay: ELISA; F coated 5000 ng/ml; stored 37° C. 4 W.
Assay [8] has as its target FHCS-2 (RSV strain A2) (UniProt P03420). Briefly: ELISA; F coated 5000 ng/ml; stored 37° C. 4 W.
Assay [9] addresses FHCS-4 (RSV strain A2) (UniProt P03420). Briefly: ELISA; F coated 5000 ng/ml; stored 37° C. 4 W.
Assay [10] deals with FHCS-1 (RSV strain A2) (UniProt P03420). Briefly: ELISA; F coated 625 ng/ml; stored -80° C.
For assay [11], the target named is FHCS-2 (RSV strain A2) (UniProt P03420). Kind of assay: ELISA; F coated 625 ng/ml; stored -80° C.
In assay [12] the target is FHCS-4 (RSV strain A2) (UniProt P03420). Kind of assay: ELISA; F coated 625 ng/ml; stored -80° C.
Assay [13] has as its target FHCS-1 (RSV strain A2) (UniProt P03420). Briefly: ELISA; F coated 2500 ng/ml; stored -80° C.
The target in assay [14] is FHCS-2 (RSV strain A2) (UniProt P03420). Kind of assay: ELISA; F coated 2500 ng/ml; stored -80° C.
Assay [15] deals with FHCS-4 (RSV strain A2) (UniProt P03420). Kind of assay: ELISA; F coated 2500 ng/ml; stored -80° C.
For assay [16], the target named is FHCS-2 (RSV strain A2) (UniProt P03420). Kind of assay: ELISA; F coated 78.13 ng/ml; stored -80° C.
The target of assay [17] is FHCS-4 (RSV strain A2) (UniProt P03420). Briefly: ELISA; F coated 78.13 ng/ml; stored -80° C.
Assay [18] addresses FHCS-1 (RSV strain A2) (UniProt P03420). Kind of assay: ELISA; F coated 1250 ng/ml; stored 37° C. 2 W.
The target of assay [19] is FHCS-2 (RSV strain A2) (UniProt P03420). Kind of assay: ELISA; F coated 1250 ng/ml; stored 37° C. 2 W.
Assay [20] concerns the target FHCS-4 (RSV strain A2) (UniProt P03420). Briefly: ELISA; F coated 1250 ng/ml; stored 37° C. 2 W.
The target in assay [21] is FHCS-1 (RSV strain A2) (UniProt P03420). Briefly: ELISA; F coated 2500 ng/ml; stored 37° C. 2 W.
Assay [22] concerns the target FHCS-2 (RSV strain A2) (UniProt P03420). Briefly: ELISA; F coated 2500 ng/ml; stored 37° C. 2 W.
Assay [23] deals with FHCS-4 (RSV strain A2) (UniProt P03420). Briefly: ELISA; F coated 2500 ng/ml; stored 37° C. 2 W.
The target in assay [24] is FHCS-1 (RSV strain A2) (UniProt P03420). Briefly: ELISA; F coated 312.5 ng/ml; stored 37° C. 2 W.
For assay [25], the target named is FHCS-2 (RSV strain A2) (UniProt P03420). Kind of assay: ELISA; F coated 312.5 ng/ml; stored 37° C. 2 W.
Assay [26] deals with FHCS-4 (RSV strain A2) (UniProt P03420). Kind of assay: ELISA; F coated 312.5 ng/ml; stored 37° C. 2 W.
For assay [27], the target named is FHCS-1 (RSV strain A2) (UniProt P03420). Kind of assay: ELISA; F coated 156.3 ng/ml; stored 37° C. 4 W.
The target in assay [28] is FHCS-2 (RSV strain A2) (UniProt P03420). Kind of assay: ELISA; F coated 156.3 ng/ml; stored 37° C. 4 W.
Assay [29] concerns the target FHCS-4 (RSV strain A2) (UniProt P03420). Kind of assay: ELISA; F coated 156.3 ng/ml; stored 37° C. 4 W.

Where “and” joins values, the source holds several entries; their conditions need not be identical. Equal entries are not always repeated.

With AM14 monoclonal antibody, the OD value with FHCS-1 (RSV strain A2) [1] was 0.011 OD and 0.015 OD; with FHCS-2 (RSV strain A2) [2] it was 0.017 OD and 0.02 OD; with FHCS-4 (RSV strain A2) [3] it was 0.007 OD and 0.006 OD; with FHCS-1 (RSV strain A2) [4], 0.902 OD and 0.775 OD; in the assay with FHCS-2 (RSV strain A2) [5] it was 0.985 OD and 0.796 OD; with FHCS-4 (RSV strain A2) [6], 0.252 OD and 0.209 OD. Further, the OD value in the assay with FHS-26 (RSV strain A2) came to 0.841 OD; with FHS-31 (RSV strain A2), 0.007 OD; in the assay with FHS-36 (RSV strain A2) it was 0.009 OD; with FHS-39 (RSV strain A2) it was 0.007 OD; in the assay with FHS-48 (RSV strain A2), 2.42 OD; with FHS-51 (RSV strain A2), 0.006 OD. The OD value in the assay with FHS-54 (RSV strain A2) is 0.012 OD; in the assay with FHS-69 (RSV strain A2), 1.88 OD; with FHS-86 (RSV strain A2) it was 0.062 OD; with FHCS-1 (RSV strain A2) [7] it was 1.17 OD and 1.33 OD; in the assay with FHCS-2 (RSV strain A2) [8], 1.95 OD and 1.48 OD; in the assay with FHCS-4 (RSV strain A2) [9] it was 0.665 OD and 0.438 OD.

In the case of Synagis® (antibody), the OD value was 0.161 OD and 0.154 OD with FHCS-1 (RSV strain A2) [10]; 0.409 OD and 0.307 OD with FHCS-2 (RSV strain A2) [11]; 0.11 OD in the assay with FHCS-4 (RSV strain A2) [12]; 1.5 OD and 1.61 OD with FHCS-1 (RSV strain A2) [13]; 1.78 OD and 1.8 OD with FHCS-2 (RSV strain A2) [14]; 0.947 OD and 0.991 OD with FHCS-4 (RSV strain A2) [15]. Also, the OD value with FHCS-2 (RSV strain A2) [16] was 0.016 OD; with FHCS-4 (RSV strain A2) [17] it was 0.008 OD; with FHCS-1 (RSV strain A2) [18], 0.478 OD and 0.493 OD; with FHCS-2 (RSV strain A2) [19] it was 0.78 OD and 0.704 OD; with FHCS-4 (RSV strain A2) [20], 0.535 OD and 0.54 OD; in the assay with FHCS-1 (RSV strain A2) [21], 1.88 OD and 1.43 OD. Moreover, the OD value with FHCS-2 (RSV strain A2) [22] is 1.6 OD and 1.85 OD; with FHCS-4 (RSV strain A2) [23], 1.46 OD and 1.58 OD; with FHCS-1 (RSV strain A2) [24], 0.051 OD and 0.05 OD; with FHCS-2 (RSV strain A2) [25], 0.084 OD and 0.095 OD; with FHCS-4 (RSV strain A2) [26], 0.074 OD and 0.071 OD; with FHCS-1 (RSV strain A2) [27], 0.055 OD and 0.062 OD. Also, the OD value with FHCS-2 (RSV strain A2) [28] was 0.069 OD and 0.058 OD; in the assay with FHCS-4 (RSV strain A2) [29], 0.05 OD and 0.048 OD.
